Experimental findings from patent US20250057968A1, “ANTI-DLL3 ANTIBODY AND PHARMACEUTICAL USE THEREOF, AND ANTIBODY-DRUG CONJUGATE CONTAINING ANTI-DLL3 ANTIBODY” (Jiangsu Hengrui Pharmaceuticals Co., Ltd., priority 2021, published 2025) are described below.

Numbering of substitutions follows the chain as printed.

For assay [1], the target named is T1, Human DLL3 full-length protein on cells (human, UniProt Q9NYJ7 27-618).
T1 construct: H1184 and DMS53 express DLL3 themselves; The cell line is named under assay; also called H1184 cells; DLL3/H82
T1 sequence: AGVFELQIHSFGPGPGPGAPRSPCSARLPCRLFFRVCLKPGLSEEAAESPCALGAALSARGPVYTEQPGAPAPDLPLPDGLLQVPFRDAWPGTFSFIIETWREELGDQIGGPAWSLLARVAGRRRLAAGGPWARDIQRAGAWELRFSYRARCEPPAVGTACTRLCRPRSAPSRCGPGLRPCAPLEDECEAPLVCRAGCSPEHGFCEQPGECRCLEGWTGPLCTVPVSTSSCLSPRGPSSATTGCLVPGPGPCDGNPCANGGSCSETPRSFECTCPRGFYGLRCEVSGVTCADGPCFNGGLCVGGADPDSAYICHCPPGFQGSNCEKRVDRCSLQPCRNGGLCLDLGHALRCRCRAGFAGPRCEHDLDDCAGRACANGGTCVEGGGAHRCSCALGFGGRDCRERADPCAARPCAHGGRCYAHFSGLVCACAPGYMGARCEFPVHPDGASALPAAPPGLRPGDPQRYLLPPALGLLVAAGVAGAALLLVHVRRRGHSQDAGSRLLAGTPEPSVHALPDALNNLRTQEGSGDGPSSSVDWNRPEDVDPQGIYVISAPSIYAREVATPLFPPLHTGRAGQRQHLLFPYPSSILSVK
Description: FACS on H1184 cells. On the procedure: (§1) Cells of the DLL3-expressing small cell lung cancer cell lines H1184 (ATCC, Cat. No. CRL-5858), DLL3/H82, cynoDLL3/CHO-s, and RatDLL3/CHO-s were suspended at 1×10^6/mL in FACS buffer (1% BSA+pH 7.4 PBS), and the cell suspensions were added to a 96-well round-bottom plate (Corning, 3795) at 100 μL/well. The plate was centrifuged at 300 g for 5 min, and the supernatant was removed. Different concentrations of test antibodies were added at 100 μL/well. The plate was incubated in the dark in a refrigerator at 4° C. for 1 h. After 3 washes by centrifugation at 300 g, working concentrations of APC anti-human IgG Fc (BioLegend, 410712) or PE F(ab′)2-goat anti-human IgG (invitrogen, H10104) were added. The plate was incubated in the dark in a refrigerator at 4° C. for 40 min. After 3 washes by centrifugation at 300 g, the geometric mean fluorescence intensity was measured on an Invitrogen flow cytometer, and the EC50 values of the antibodies in binding to DLL3-expressing cells were calculated.

Assay [2] concerns the target T1, Human DLL3 full-length protein on cells. Description: cell-based or functional assay.
The target of assay [3] is T2, Rat DLL3 full-length protein on CHO-s cells (rat, UniProt O88671 33-589).
T2 construct: also called RatDLL3/CHO-s; ratDLL3/CHO-s
T2 sequence: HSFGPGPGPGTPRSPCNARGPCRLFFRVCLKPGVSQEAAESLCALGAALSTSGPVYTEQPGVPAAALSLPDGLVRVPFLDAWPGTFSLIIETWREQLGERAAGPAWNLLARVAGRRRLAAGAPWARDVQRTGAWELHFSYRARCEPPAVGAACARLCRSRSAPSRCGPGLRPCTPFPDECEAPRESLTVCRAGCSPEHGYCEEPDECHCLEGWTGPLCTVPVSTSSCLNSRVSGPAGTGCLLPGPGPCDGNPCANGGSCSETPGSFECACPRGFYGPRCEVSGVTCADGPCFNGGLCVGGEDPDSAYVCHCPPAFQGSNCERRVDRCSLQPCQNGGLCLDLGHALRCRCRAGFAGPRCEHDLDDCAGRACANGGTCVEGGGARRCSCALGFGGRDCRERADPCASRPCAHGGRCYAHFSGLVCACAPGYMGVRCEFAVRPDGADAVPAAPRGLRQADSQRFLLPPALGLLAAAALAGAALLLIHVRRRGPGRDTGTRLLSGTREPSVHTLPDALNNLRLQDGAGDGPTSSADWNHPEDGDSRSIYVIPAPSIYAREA
Description: FACS on RatDLL3/CHO-s cells. The method, then:
as §1

In assay [4] the target is T3, Cynomolgus monkey DLL3 full-length protein on CHO-s cells (cynomolgus monkey, UniProt Q9NYJ7 27-618 (human entry)).
T3 construct: also called cynoDLL3/CHO-s
T3 chain: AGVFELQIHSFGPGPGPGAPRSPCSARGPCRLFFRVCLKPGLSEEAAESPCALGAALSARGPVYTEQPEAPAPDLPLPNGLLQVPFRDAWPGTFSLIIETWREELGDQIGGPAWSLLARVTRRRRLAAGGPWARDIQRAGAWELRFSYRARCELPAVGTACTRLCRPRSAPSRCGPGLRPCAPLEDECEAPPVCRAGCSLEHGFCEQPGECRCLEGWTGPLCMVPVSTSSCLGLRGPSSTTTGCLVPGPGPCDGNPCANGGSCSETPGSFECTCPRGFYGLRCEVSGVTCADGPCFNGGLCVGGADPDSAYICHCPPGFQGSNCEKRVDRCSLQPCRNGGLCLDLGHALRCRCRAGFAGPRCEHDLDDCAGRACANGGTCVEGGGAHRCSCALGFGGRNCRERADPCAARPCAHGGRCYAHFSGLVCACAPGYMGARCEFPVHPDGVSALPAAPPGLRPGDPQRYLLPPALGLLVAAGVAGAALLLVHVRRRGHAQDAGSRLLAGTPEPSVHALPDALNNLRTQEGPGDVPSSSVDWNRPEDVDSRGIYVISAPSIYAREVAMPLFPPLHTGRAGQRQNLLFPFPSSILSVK
Put plainly: FACS on cynoDLL3/CHO-s cells. The method, then:
as §1

Assay [5] addresses T4, hDLL3(ECD)-strep twin, biotinylated (human, UniProt Q9NYJ7 27-492, biotinylated (site not stated)).
T4 construct: also called Biotinylated DLL3 antigen; Biotinylated DLL3-Strep
Description: competition ELISA: BI-764532 coated on the plate (1 µg/mL), biotinylated DLL3-Strep (0.1 µg/mL) with soluble BI-764532 as competitor, streptavidin-peroxidase detection, OD450. The method, then:
The plate was washed 3 times with 250 μL of PBST solution per well. The plate was blocked with 250 μL of 5% milk per well at 37° C. for 2 h. The plate was washed 3 times with 250 μL of PBST solution per well. […] The plate was washed 6 times with 250 μL of PBST solution per well. […] The plate was washed 6 times with 250 μL of PBST solution per well. TMB (KPL, 5120-0077) substrate solution was added at 100 μL/well, and color development was allowed at room temperature for 5-10 min.
(An ELISA detects its analyte on a solid surface through an enzyme-linked reagent.)

The target of another assay is T5, human DLL3 (Homo sapiens, UniProt Q9NYJ7).
T5 construct: purchased ACRO DLL3-H52H4
T5 sequence (Q9NYJ7 27-492 limits assumed): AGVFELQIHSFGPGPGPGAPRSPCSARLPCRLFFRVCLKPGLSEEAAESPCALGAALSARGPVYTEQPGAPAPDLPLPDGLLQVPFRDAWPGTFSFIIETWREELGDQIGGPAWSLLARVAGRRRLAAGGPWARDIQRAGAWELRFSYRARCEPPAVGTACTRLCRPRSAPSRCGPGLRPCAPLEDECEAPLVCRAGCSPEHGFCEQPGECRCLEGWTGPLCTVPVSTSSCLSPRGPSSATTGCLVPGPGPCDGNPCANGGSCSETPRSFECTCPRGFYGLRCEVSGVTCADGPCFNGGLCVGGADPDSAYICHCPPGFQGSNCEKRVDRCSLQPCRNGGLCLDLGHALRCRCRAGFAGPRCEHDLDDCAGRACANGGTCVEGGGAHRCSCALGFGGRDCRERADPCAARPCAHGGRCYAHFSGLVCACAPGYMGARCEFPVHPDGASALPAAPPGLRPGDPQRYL
Description: Biacore antibody affinity assay, human DLL3. In kind it is binding. From the text:
Test antibodies were affinity-captured with a Protein A biosensor chip (Cat. #29127556, Cytiva) for 18 seconds, and then the antigens human DLL3 (ACRO, DLL3-H52H4), cynomolgus monkey DLL3 (KACTUS, DLL-RM103), and mouse DLL3 (KACTUS, DLL-MM103) were allowed to flow over the surface of the chip for 180 seconds, followed by 600 seconds of dissociation. Reaction signals were detected in real time using a Biacore 8K (Cytiva) instrument to obtain association and dissociation curves. After the dissociation in each experimental cycle, the biosensor chip was washed and regenerated with a 10 mM glycine-hydrochloric acid solution (pH 1.5) (Cat. #BR-1003-54, Cytiva). A 1:1 model was fit to the data. The results are shown in Table 12-1, Table 12-2, and Table 12-3.

Assay [6] concerns the target T1, Human DLL3 full-length protein on cells. Description: cell-based or functional assay. This is another data set of the same source.

By EC50 is commonly meant the concentration needed to bring the measured effect to its halfway point.

B1: M6CHI (antibody, human IgG1, kappa, V domains shown)
VH: EVQLQQSGPVLVKPGASVKMSCKASGYTFTDYYMNWVKQSHGKSLEWIGIINPYSGVTIYNHKFKGKATLTVDKSSNTAYMELNSLTSEDSAVYYCARQDSLLDYAMDYWGQGTSVTVSS
VL: DILMTQSPSSMSVSLGDTVSITCHASQGISGNMGWLQQKPGKSFKGLIYHGANLEDGVPSRFSGSGSGADYSLTISSLESEDFADYYCVQYAQFPYTFGGGTKLEIKR
notes: murine variable regions on human IgG1 / kappa constant regions; also called chimeric antibody of mAb6
In assay [1], B1 came in with an EC50 of 0.14 nM and an Emax of 3370.

B2: BI-764532 (antibody, human IgG1, kappa, V domains shown)
VH: QVQLVQSGAEVKKPGASVKVSCKASGYTFTSYYVHWVRQAPGQGLEWMVIINPGGGTTSYAQKFLGRVTMTRDTSTNTVYMELKSLRSEDTAVYYCARGEAVTGNYFYYGMDVWGQGTTVTVSS
VL: DIQMTQSPSAMSASVGDRVTITCRASQGISNYLVWFQQKPGKAPKRLIYAVSSLYSGVPSRFSGSGSGTEFTLTISSLQPEDFATYYCLQHDSYPYTFGQGTKLEIKR
notes: also called positive control molecule
In assay [1], B2 showed an EC50 of 3.94 nM and an Emax of 1620. Besides, in assay [2], the “IC50 (nM), cell killing caused by endocytosis of antibodies (DT3C, DMS53/DLL3 cells)” value came out at 3.27 nM and the “Imax, cell killing caused by endocytosis of antibodies (DT3C, DMS53/DLL3 cells)” value was 86.5. Moreover, the binding result in assay [3] is recorded as “no binding”. Also, in assay [4], the EC50 stood at 3.42 nM and the Emax turned out to be 963. Besides, the “IC50 (read off the curve)” value in assay [5] is roughly 0.06 µg/mL.

B3: hAb6L4H6 (antibody, human IgG1, kappa, V domains shown)
VH: EVQLVQSGSELKKPGASVKVSCKASGYTFTDYYMNWVRQAPGQGLEWMGIINPYSGVTIYNHKFKGRFVLSVDKSSNTAYLQISSLKAEDTAVYYCARQDSLLDYAMDYWGQGTTVTVSS
VL: DIQMTQSPSSLSASVGDRVTITCHASQGISGNMGWLQQKPGKAPKGLIYHGANLEDGVPSRFSGSGSGADYTLTISSLQPEDFADYYCVQYAQFPYTFGGGTKVEIKR
With B3, in assay [1], a half-maximal effect (EC50) was put at 0.17 nM and the Emax amounted to 2000.

B4: hAb6L4H13: humanized antibody of mAb6: hAb6VH13 (SEQ ID NO: 44) + hAb6VL4 (SEQ ID NO: 48), constant regions SEQ ID NO: 28/29 (antibody, V domains shown)
VH: B3 VH with R38K, V69A
VL: DIQMTQSPSSLSASVGDRVTITCHASQGISGNMGWLQQKPGKAPKGLIYHGANLEDGVPSRFSGSGSGADYTLTISSLQPEDFADYYCVQYAQFPYTFGGGTKVEIK
modifications: constant regions SEQ ID 28/29; hAb6VH13; hAb6 VL4
B4: in the assay with human DLL3, the “ka” value was determined as 2.16e+06 M⁻¹ s⁻¹ and the “kd” value worked out at 0.000695 s⁻¹.

B5: ADC-2 (antibody, human IgG1, kappa, V domains shown)
VH: EVQLVESGGGLVKPGGSLRLSCAASGFTFSDSGMHWIRQAPGKGLEWVSYISSGSSTIHYADTVKGRFTISRDNAKNSLYLQMNSLRAEDTAVYYCASPLYYYGRSYNAVAYWGQGTTVTVSS
VL: DIQMTQSPSSLSASVGDRVTITCHASQNINVWLSWYQQKPGKVPKLLIYKASDLHTGVPSRFSGSGSGTDFTLTISSLQPEDVATYYCQQGQSYPLTFGGGTKVEIKR
modifications: linker-drug L-9 conjugated after TCEP reduction; sites not stated; linker-drug L-9 (ecteinascidin derivative) conjugated after TCEP reduction; sites not stated; DAR n=3.72-4.88 for the whole antibody
For B5, in assay [6], the “IC50 (nM), killing of DMS53 (+) cells” value is 13.1 nM and the “IC50 (nM), killing of H1184 (+++) cells” value was found to be 0.11 nM.
